B1: ZNF232 (parent)
chain: HSGEKPFICKECGKAYGWCSELIR

Variants of: B1
Assay: protein stability index of a GFP-peptide fusion (GPS, HEK-293T) (PSI 1-6); higher = more stable
Settings: c terminus: a fixed tail appended
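Note: lentivirally expressed fusions sorted by FACS into six bins by GFP to DsRed ratio, PSI derived from sequencing read proportions per bin multiplied by bin number.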

Variant	protein stability index
HSGEYPFICKECGKAYGWCSELIR [K5Y]	1.74
HSGEKAFICKECGKAYGWCSELIR [P6A]	1.74
HSGEKCFICKECGKAYGWCSELIR [P6C]	2.45
HSGEKDFICKECGKAYGWCSELIR [P6D]	2.68
HSGEKEFICKECGKAYGWCSELIR [P6E]	2.37
HSGEKFFICKECGKAYGWCSELIR [P6F]	1.66
HSGEKGFICKECGKAYGWCSELIR [P6G]	2.08
HSGEKHFICKECGKAYGWCSELIR [P6H]	2.04
HSGEKIFICKECGKAYGWCSELIR [P6I]	1.83
HSGEKKFICKECGKAYGWCSELIR [P6K]	2.91
HSGEKLFICKECGKAYGWCSELIR [P6L]	2.2
HSGEKMFICKECGKAYGWCSELIR [P6M]	2.04
HSGEKNFICKECGKAYGWCSELIR [P6N]	2.37
HSGEKQFICKECGKAYGWCSELIR [P6Q]	1.35
HSGEKRFICKECGKAYGWCSELIR [P6R]	2.23
HSGEKSFICKECGKAYGWCSELIR [P6S]	1.98
HSGEKTFICKECGKAYGWCSELIR [P6T]	2.3
HSGEKVFICKECGKAYGWCSELIR [P6V]	2.12
HSGEKWFICKECGKAYGWCSELIR [P6W]	1.69
HSGEKYFICKECGKAYGWCSELIR [P6Y]	1.74
HSGEKPAICKECGKAYGWCSELIR [F7A]	2.22
HSGEKPCICKECGKAYGWCSELIR [F7C]	1.73
HSGEKPDICKECGKAYGWCSELIR [F7D]	2.29
HSGEKPEICKECGKAYGWCSELIR [F7E]	2.7

Variant	protein stability index
HSGEKPGICKECGKAYGWCSELIR [F7G]	2.52
HSGEKPHICKECGKAYGWCSELIR [F7H]	2.73
HSGEKPIICKECGKAYGWCSELIR [F7I]	2.56
HSGEKPKICKECGKAYGWCSELIR [F7K]	2.54
HSGEKPLICKECGKAYGWCSELIR [F7L]	2.05
HSGEKPMICKECGKAYGWCSELIR [F7M]	2.1
HSGEKPNICKECGKAYGWCSELIR [F7N]	2.24
HSGEKPPICKECGKAYGWCSELIR [F7P]	2.11
HSGEKPQICKECGKAYGWCSELIR [F7Q]	2.08
HSGEKPRICKECGKAYGWCSELIR [F7R]	2.12
HSGEKPSICKECGKAYGWCSELIR [F7S]	2.79
HSGEKPTICKECGKAYGWCSELIR [F7T]	2
HSGEKPVICKECGKAYGWCSELIR [F7V]	1.89
HSGEKPWICKECGKAYGWCSELIR [F7W]	2.09
HSGEKPYICKECGKAYGWCSELIR [F7Y]	2.52
HSGEKPFACKECGKAYGWCSELIR [I8A]	1.7
HSGEKPFCCKECGKAYGWCSELIR [I8C]	2.46
HSGEKPFDCKECGKAYGWCSELIR [I8D]	2.07
HSGEKPFECKECGKAYGWCSELIR [I8E]	2.22
HSGEKPFFCKECGKAYGWCSELIR [I8F]	1.51
HSGEKPFGCKECGKAYGWCSELIR [I8G]	2.01
HSGEKPFHCKECGKAYGWCSELIR [I8H]	1.79
HSGEKPFKCKECGKAYGWCSELIR [I8K]	2.09
